Source: patent US20200199204A1

What was measured:
Assay in all cases: cell-based or functional assay
[1] = molecular target: HIV-1 Env of 0260.v5.c36 (HIV-1)
[2] = molecular target: HIV-1 Env of 191821.E6.1 (HIV-1)
[3] = molecular target: HIV-1 Env of 3016.V5.c36 (HIV-1)
[4] = molecular target: HIV-1 Env of 6405.v4.c34 (HIV-1)
[5] = molecular target: HIV-1 Env of 6535.3 (HIV-1)
[6] = molecular target: HIV-1 Env of 96ZM651.02 (HIV-1)
[7] = molecular target: HIV-1 Env of AC10.29 (HIV-1)
[8] = molecular target: HIV-1 Env of BG505.w6m (HIV-1)
[9] = molecular target: HIV-1 Env of C1080.c3 (HIV-1)
[10] = molecular target: HIV-1 Env of CAAN.A2 (HIV-1)
[11] = molecular target: HIV-1 Env of CAP210.E8 (HIV-1)
[12] = molecular target: HIV-1 Env of CAP244.D3 (HIV-1)
[13] = molecular target: HIV-1 Env of CAP256.PI (HIV-1)
[14] = molecular target: HIV-1 Env of CAP256.SU (HIV-1)
[15] = molecular target: HIV-1 Env of CAP45.G3 (HIV-1)
[16] = molecular target: HIV-1 Env of CM244.ec1 (HIV-1)
[17] = molecular target: HIV-1 Env of CNE3 (HIV-1)
[18] = molecular target: HIV-1 Env of DU156.12 (HIV-1)
[19] = molecular target: HIV-1 Env of DU172.17 (HIV-1)
[20] = molecular target: HIV-1 Env of DU422.01 (HIV-1)
[21] = molecular target: HIV-1 Env of KER2008.12 (HIV-1)
[22] = molecular target: HIV-1 Env of KER2018.11 (HIV-1)
[23] = molecular target: HIV-1 Env of MB201 (HIV-1)
[24] = molecular target: HIV-1 Env of MB539.2B7 (HIV-1)
[25] = molecular target: HIV-1 Env of PVO.04 (HIV-1)
[26] = molecular target: HIV-1 Env of Q168.a2 (HIV-1)
[27] = molecular target: HIV-1 Env of Q23.17 (HIV-1)
[28] = molecular target: HIV-1 Env of Q259.d2.17 (HIV-1)
[29] = molecular target: HIV-1 Env of Q461.e2 (HIV-1)
[30] = molecular target: HIV-1 Env of Q769.d22 (HIV-1)
[31] = molecular target: HIV-1 Env of Q842.d12 (HIV-1)
[32] = molecular target: HIV-1 Env of QH0692.42 (HIV-1)
[33] = molecular target: HIV-1 Env of REJO.67 (HIV-1)
[34] = molecular target: HIV-1 Env of RHPA.7 (HIV-1)
[35] = molecular target: HIV-1 Env of RW020.2 (HIV-1)
[36] = molecular target: HIV-1 Env of SC422.8 (HIV-1)
[37] = molecular target: HIV-1 Env of TH976.17 (HIV-1)
[38] = molecular target: HIV-1 Env of THRO.18 (HIV-1)
[39] = molecular target: HIV-1 Env of TRJO.58 (HIV-1)
[40] = molecular target: HIV-1 Env of TRO.11 (HIV-1)
[41] = molecular target: HIV-1 Env of UG037.8 (HIV-1)
[42] = molecular target: HIV-1 Env of WITO.33 (HIV-1)
[43] = molecular target: HIV-1 Env of ZM109.4 (HIV-1)
[44] = molecular target: HIV-1 Env of ZM135.10a (HIV-1)
[45] = molecular target: HIV-1 Env of ZM197.7 (HIV-1)
[46] = molecular target: HIV-1 Env of ZM214.15 (HIV-1)
[47] = molecular target: HIV-1 Env of ZM233.6 (HIV-1)
[48] = molecular target: HIV-1 Env of ZM249.1 (HIV-1)
[49] = molecular target: HIV-1 Env of ZM53.12 (HIV-1)

## CAP256-VRC26.15 (antibody)
[1]
  IC50: > 50 µg/mL
[2]
  IC50: > 50 µg/mL
[3]
  IC50: 0.16 µg/mL
[4]
  IC50: > 50 µg/mL
[5]
  IC50: > 50 µg/mL
[6]
  IC50: > 50 µg/mL
[7]
  IC50: > 50 µg/mL
[8]
  IC50: 11.7 µg/mL
[9]
  IC50: > 50 µg/mL
[10]
  IC50: > 50 µg/mL
[11]
  IC50: 0.019 µg/mL
[12]
  IC50: > 50 µg/mL
[13]
  IC50: > 50 µg/mL
[14]
  IC50: 0.008 µg/mL
[15]
  IC50: > 50 µg/mL
[16]
  IC50: 0.112 µg/mL
[17]
  IC50: > 50 µg/mL
[18]
  IC50: 10.4 µg/mL
[19]
  IC50: > 50 µg/mL
[20]
  IC50: 0.153 µg/mL
[21]
  IC50: > 50 µg/mL
[22]
  IC50: 0.04 µg/mL
[23]
  IC50: > 50 µg/mL
[24]
  IC50: > 50 µg/mL
[25]
  IC50: 30 µg/mL
[26]
  IC50: > 50 µg/mL
[27]
  IC50: 0.338 µg/mL
[28]
  IC50: 0.657 µg/mL
[29]
  IC50: 19.9 µg/mL
[30]
  IC50: > 50 µg/mL
[31]
  IC50: 9.35 µg/mL
[32]
  IC50: > 50 µg/mL
[33]
  IC50: > 50 µg/mL
[34]
  IC50: > 50 µg/mL
[35]
  IC50: > 50 µg/mL
[36]
  IC50: > 50 µg/mL
[37]
  IC50: > 50 µg/mL
[38]
  IC50: > 50 µg/mL
[39]
  IC50: > 50 µg/mL
[40]
  IC50: > 50 µg/mL
[41]
  IC50: > 50 µg/mL
[42]
  IC50: > 50 µg/mL
[43]
  IC50: > 50 µg/mL
[44]
  IC50: > 50 µg/mL
[45]
  IC50: 14.6 µg/mL
[46]
  IC50: > 50 µg/mL
[47]
  IC50: 0.192 µg/mL
[48]
  IC50: > 50 µg/mL
[49]
  IC50: 0.014 µg/mL

## CAP256-VRC26.16 (antibody)
[1]
  IC50: > 50 µg/mL
[2]
  IC50: 0.82 µg/mL
[3]
  IC50: 0.012 µg/mL
[4]
  IC50: > 50 µg/mL
[5]
  IC50: > 50 µg/mL
[6]
  IC50: > 50 µg/mL
[7]
  IC50: > 50 µg/mL
[8]
  IC50: 0.36 µg/mL
[9]
  IC50: 5.9 µg/mL
[10]
  IC50: > 50 µg/mL
[11]
  IC50: 0.009 µg/mL
[12]
  IC50: > 50 µg/mL
[13]
  IC50: > 50 µg/mL
[14]
  IC50: 0.004 µg/mL
[15]
  IC50: > 50 µg/mL
[16]
  IC50: 0.67 µg/mL
[17]
  IC50: > 50 µg/mL
[18]
  IC50: 48.7 µg/mL
[19]
  IC50: > 50 µg/mL
[20]
  IC50: 3.9 µg/mL
[21]
  IC50: > 50 µg/mL
[22]
  IC50: 0.062 µg/mL
[23]
  IC50: > 50 µg/mL
[24]
  IC50: > 50 µg/mL
[25]
  IC50: > 50 µg/mL
[26]
  IC50: > 50 µg/mL
[27]
  IC50: > 50 µg/mL
[28]
  IC50: 5.78 µg/mL
[29]
  IC50: > 50 µg/mL
[30]
  IC50: > 50 µg/mL
[31]
  IC50: > 50 µg/mL
[32]
  IC50: > 50 µg/mL
[33]
  IC50: > 50 µg/mL
[34]
  IC50: > 50 µg/mL
[35]
  IC50: > 50 µg/mL
[36]
  IC50: > 50 µg/mL
[37]
  IC50: > 50 µg/mL
[38]
  IC50: > 50 µg/mL
[39]
  IC50: > 50 µg/mL
[40]
  IC50: > 50 µg/mL
[41]
  IC50: > 50 µg/mL
[42]
  IC50: > 50 µg/mL
[43]
  IC50: > 50 µg/mL
[44]
  IC50: > 50 µg/mL
[45]
  IC50: 2.21 µg/mL
[46]
  IC50: > 50 µg/mL
[47]
  IC50: 0.031 µg/mL
[48]
  IC50: 45 µg/mL
[49]
  IC50: 0.006 µg/mL
